Legend:
human serpinB3 = target: T1, human serpinB3 (human, UniProt P29508 1-390); test: ELISA cross-reactivity test / Luminex bead assay (FIG. 25)
T1 construct: Luminex antigen captured from a 293 cell lysate; not shown: V5-His tag of the pcDNA3.1 Directional V5-His-TOPO vector
T1 sequence (looked up): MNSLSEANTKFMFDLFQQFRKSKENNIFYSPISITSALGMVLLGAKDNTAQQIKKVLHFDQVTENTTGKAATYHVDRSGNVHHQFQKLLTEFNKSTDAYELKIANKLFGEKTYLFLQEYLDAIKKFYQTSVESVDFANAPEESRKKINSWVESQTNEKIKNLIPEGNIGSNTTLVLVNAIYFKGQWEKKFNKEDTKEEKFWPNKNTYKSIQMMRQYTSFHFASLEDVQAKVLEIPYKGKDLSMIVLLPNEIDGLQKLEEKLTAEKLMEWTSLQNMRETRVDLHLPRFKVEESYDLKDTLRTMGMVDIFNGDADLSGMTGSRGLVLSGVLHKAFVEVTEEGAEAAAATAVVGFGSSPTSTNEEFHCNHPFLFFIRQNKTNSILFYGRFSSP
Description: (§1) Three recombinant human anti-serpinB13 antibodies were examined in the Luminex-based assay for binding to other clade B serpins, in order as indicated. The final concentration of each antibody was 1.0 μg/mL. The data are expressed as immunofluorescence intensity measured for binding to individual human serpin antigens after subtracting the background. The latter was determined as the average antibody binding to Luminex beads coated with Gfp and Scgn control antigens. Similar data were obtained for antigen binding of Fab fragments of these antibodies (data not shown).
(§2) Luminex assay. Luminex-based technology was used to measure serpinB13 AA in human samples. Initially, the Luminex beads were precoated with serpinB13, Gfp and Scgn, using precleared lysates of 293 cells that had been transfected with individual cDNAs. Biotinylated mouse anti-human K and 2 chain mAbs (BD Biosciences) (dilution 1:300) and streptavidin (Invitrogen) (dilution 1:200) were used as secondary reagents to measure human serum binding activity to individual antigens. The data were expressed as fluorescence intensity (F.I.) due to serum binding activity in the presence of beads precoated with serpinB13 and after subtracting the average F.I. due to serum binding activity in the presence of beads precoated with control proteins, Gfp and Scgn (e.g. F.I.^B13-[F.I.^GFP+F.I.^Segn]/2). The samples were evaluated based on the level of F.I. and the degree of inhibition of binding to serpin-B13 coated beads with soluble serpinB13 (2.5 μg/mL), compared with the bovine serum albumin (BSA). […] All samples were run blind on three independent occasions. Subjects with serum samples that produced a positive results three times were considered positive. Subjects with serum samples that produced a negative result on at least one occasion were considered negative.
(§3) To determine whether anti-serpin activity is specific, binding of three human recombinant antibodies to serpinB13 was examined for potential cross-reactivity with other clade B serpins.

human serpinB10 = target: T2, human serpinB10 (human, UniProt P48595 1-397); test: as above
T2 construct: Luminex antigen captured from a 293 cell lysate; not shown: V5-His tag of the pcDNA3.1 Directional V5-His-TOPO vector
T2 sequence (looked up): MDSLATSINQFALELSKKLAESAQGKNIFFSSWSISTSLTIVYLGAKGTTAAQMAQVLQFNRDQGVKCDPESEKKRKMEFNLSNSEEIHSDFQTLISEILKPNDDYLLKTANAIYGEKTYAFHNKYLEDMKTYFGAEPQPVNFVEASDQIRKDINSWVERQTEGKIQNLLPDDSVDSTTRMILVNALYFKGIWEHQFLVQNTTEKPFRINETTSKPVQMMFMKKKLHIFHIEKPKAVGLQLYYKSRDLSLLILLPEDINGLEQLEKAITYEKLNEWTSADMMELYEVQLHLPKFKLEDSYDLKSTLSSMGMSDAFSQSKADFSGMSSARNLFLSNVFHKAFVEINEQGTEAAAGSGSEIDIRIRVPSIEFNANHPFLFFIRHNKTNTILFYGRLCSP
Description: as §1, §2, §3

human serpinB8 = target: T3, human serpinB8 (human, UniProt P50452 1-374); test: Luminex bead assay, beads coated with human serpinB8, background (Gfp and Scgn beads) subtracted
T3 construct: Luminex antigen captured from a 293 cell lysate; not shown: V5-His tag of the pcDNA3.1 Directional V5-His-TOPO vector
T3 sequence (looked up): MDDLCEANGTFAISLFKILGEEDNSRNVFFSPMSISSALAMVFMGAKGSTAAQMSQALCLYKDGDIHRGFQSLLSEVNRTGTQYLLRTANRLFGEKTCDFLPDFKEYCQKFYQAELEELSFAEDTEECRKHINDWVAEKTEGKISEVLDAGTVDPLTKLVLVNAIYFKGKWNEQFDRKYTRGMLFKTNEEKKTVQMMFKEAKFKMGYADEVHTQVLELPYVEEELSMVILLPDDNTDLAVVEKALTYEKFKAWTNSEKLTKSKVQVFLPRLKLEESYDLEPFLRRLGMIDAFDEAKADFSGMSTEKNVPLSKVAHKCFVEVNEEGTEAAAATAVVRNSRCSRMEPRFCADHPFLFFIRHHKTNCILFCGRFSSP
Description: (§4) The latter was determined as the average antibody binding to Luminex beads coated with Gfp and Scgn control antigens. Similar data were obtained for antigen binding of Fab fragments of these antibodies (data not shown).
as §2
(§5) To determine whether anti-serpin activity is specific, binding of three human recombinant antibodies to serpinB13 was examined for potential cross-reactivity with other clade B serpins. Binding to the beads conjugated with Gfp and Scgn was used to subtract the background and the assay was developed using the same reagents as those described above for measuring serpinB13 AA in serum samples.

human serpinB12 = target: T4, human serpinB12 (human, UniProt Q96P63 1-405); test: Luminex bead assay, beads coated with human serpinB12, background (Gfp and Scgn beads) subtracted
T4 construct: Luminex antigen captured from a 293 cell lysate; not shown: V5-His tag of the pcDNA3.1 Directional V5-His-TOPO vector
T4 sequence (looked up): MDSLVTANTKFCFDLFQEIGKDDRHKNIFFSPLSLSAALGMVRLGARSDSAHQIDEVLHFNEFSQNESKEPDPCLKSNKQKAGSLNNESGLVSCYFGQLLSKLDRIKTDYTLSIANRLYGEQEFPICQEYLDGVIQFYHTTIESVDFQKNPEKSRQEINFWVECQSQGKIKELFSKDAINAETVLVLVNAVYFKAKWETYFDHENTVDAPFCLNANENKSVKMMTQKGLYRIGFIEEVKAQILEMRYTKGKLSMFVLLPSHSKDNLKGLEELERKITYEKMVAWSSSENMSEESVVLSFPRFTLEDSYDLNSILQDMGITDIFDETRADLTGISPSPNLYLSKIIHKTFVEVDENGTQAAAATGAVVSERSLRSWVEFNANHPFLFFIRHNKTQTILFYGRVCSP
Description: as §4, §2, §5

Measured: binding result

B1: recombinant fully human anti-serpinB13 antibody Clone 1 (antibody, human IgG1, kappa, V domains shown)
VH: QVQLQESGGGVVQPGRSLRLSCAASGFTFSSYGMHWVRQAPGKGLEWVAVISYDGSNKYYADSVKGRFTISRDNSKNTLYLQMNSLRAEDTAVYYCARDLGAVIAVAGTSTPYNWFDPWGQGTLVTVSS
VL: DVVMTQSPLSLPVTPGEPASISCRSRQSLLHSNGHNYLGWYLQKPGQSPQLLIYLASIRASGIPDRFSGSGSGTDFTLKISRVEAEDVGVYYCMQALQTPYTFGQGTKLEIKR
notes: also called mAb1; mAbs1
no binding (tested: 1.0 µg/mL): all assays above

B2: recombinant fully human anti-serpinB13 antibody Clone 2 (antibody, human IgG1, kappa, V domains shown)
VH: QMQLVQSGGGVVRPGGSLRLSCAASGFTFDDYGMSWVRQAPGKGLEWVSGINWNGGSTGYADSVKGRFTISRDNAKNSLYLQMNSLRAEDTALYYCARESSMTTVTTYLLREVGVGLDFDYWGQGTLVTVSS
VL: ETTLTQSPGTLSLSPGERATLSCRASQTVSGSYLAWYQQKPGQPPRLLIYGASSRATGIPDRFSGSGSGTDFTLTISRLEPEDFAVYYCQDYGSSRTFGQGTKVELKR
notes: also called mAb2; CLONE2-H(m1) / CLONE2-L(m1)
no binding (tested: 1.0 µg/mL): all assays above

B3: recombinant fully human anti-serpinB13 antibody Clone 3 (antibody, human IgG1, kappa, V domains shown)
VH: QVQLQQWGAGLLKPSETLSLTCAVYGGSFSGYYWSWIRQPPGKGLEWIGEINHSGSTNYNPSLKSRVTISVDTSKNQFSLKLSSVTAADTAVYYCARRYCSGGSCYLVGTGSELDYWGQGTLVTVSS
VL: DIQMTQSPSTLSASVGDRVTITCRASQSISSWLAWYQQKPGKAPKLLIYKASSLEIGVPSRFSGSGYGTEFTLTISSLQPDDFATYYCLQYSTHSTFGQGTRVEIKR
notes: also called mAb3; CLONE3-H(m1) / CLONE3-L(m1)
no binding (tested: 1.0 µg/mL): all assays above
